Measured values: patent US20240043504A1 (published 2024)

How the values were obtained:
[1] = target: SARS-COV-2 RBD extracellular domain expressed with a C-terminal mouse IgG2a (SARS-CoV-2); assay: SPR Biacore, mAb captured via anti-hFc, 25 C
[2] = target: SARS-COV-2 RBD extracellular domain expressed with a C-terminal mouse IgG2a (SARS-COV-2 RBD-mFc) (SARS-CoV-2); assay: SPR, captured mAb, RBD-mFc in solution, 37 C

| Binder | Kd [1] [nM] | t½ [1] [h] | further results |
| --- | --- | --- | --- |
| mAb10984 (antibody, V domains shown) VH: EVQLVESGGGLVQPGGSLRLSCAASGLTVNRNYMSWVRQAPGKGLEWVSLIYSGGSTYYADSVKGRFTISRDNSKNTLYLQMNSLRLEDTAVYYCARGELGIPYGMDVWGQGTTVTVSS VL: QSVLTQPPSVSAAPGQKVTISCSGSSSNIGNNYVSWYQQLPGTAPKLLIYDNNKRPSGIPDRFSGSKSGTSATLGITGLQTGDEADYYCGTWDSSLSAGVFGGGTKLTVLG | 0.0286 | 4.85 | – |
| mAb11004 (antibody, V domains shown) VH: QVQLVESGGGVVQPGRSLRLSCVASGFTFSIYGMDWVRQAPGKGLEWVAVISYDGSNKYYADSVKGRFTISRDNSKNTLYLQMNSLRPEDTAVYYCAKDREAAADAFDIWGQGTMVTVSS VL: DIQMTQSPSSVSASVGDRVTITCRASQGISSWLAWYQQKPGKAPKLLIYAASSLHSGVPSRFSGSGSGTDFTLTISSLQPEDFATYYCQQANSFRLTFGGGTKVEIKR | 0.0921 | 3.01 | koff [1]: 6.4e-05 s⁻¹; kon [1]: 695000 M⁻¹ s⁻¹ |
| mAb10989 (antibody, V domains shown) VH: QVQLVQSGAEVKKPGASVKVSCKASGYIFTGYYMHWVRQAPGQGLEWMGWINPNSGGANYAQKFQGRVTLTRDTSITTVYMELSRLRFDDTAVYYCARGSRYDWNQNNWFDPWGQGTLVTVSS VL: QSALTQPASVSGSPGQSITISCTGTSSDVGTYNYVSWYQQHPGKAPKLMIFDVSNRPSGVSDRFSGSKSGNTASLTISGLQAEDEADYYCSSFTTSSTVVFGGGTKLTVLG | 0.00895 | 2 | – |
| mAb10982 (antibody, V domains shown) VH: EVQLVESGGGLVQPGGSLRLSCAASGLTVSSNYMSWVRQAPGKGLEWVSVIYSGGTTYYADSVKGRFTISRHNSKNTLSLQMNSLRAEDTAVYYCARGEGANYYGMDVWGQGTTVTVSS VL: QSVLTQPPSVSGAPGQRVTISCTGSSSNIGTGYDVHWYQQLPGTAPKLLIYGNSNRPSGVPDRFSGSKSGTSASLAITGLQAEDEADYYCQSYDSSLSGYVVFGGGTKLTVLG | 0.0886 | 2.39 | koff [1]: 8.06e-05 s⁻¹; kon [1]: 910000 M⁻¹ s⁻¹ |
| mAb10986 (antibody, V domains shown) VH: EVQLVESGGGLVQPGGSLRLSCAASEFTVSSNYMSWVRQAPGKGLEWVSVIYSGGSTFYADSVKGRFTISRDNSKNTLYLQMNSLRAEDTAVYYCARALPYGDLHFDYWGQGTLVTVSS VL: QSVLTQPPSVSGAPGQRVTISCTGSSSNIGTGYDVHWYQQLPGTAPKLLIYGNTNRPSGVPDRFSGSKSGTSASLAITGLQAEDEADYYCQSYDSSLSDSYVFGTGTKVTVLG | 0.00888 | 8.02 | – |
| mAb10985 (antibody, V domains shown) VH: EVQLVESGGGLVQPGRSLRLSCAASGFTFDDYAMHWVRQAPGKGLEWVSGISWNRGSIGYADSVKGRFTISRDNAKNSLYLQMSSLRAEDTALYYCAKDGERWDSVVVPSARNGMDVWGQGTTVTVSS VL: QSVLTQPPSVSGAPGQRVTISCTGSSSNIGAGYDVHWYQQLPGTAPKLLIYGNSNRPSGVPDRFSGSKSGTSASLAITGLQAEDEADYYCQSYDSSLSGSYVFGTGTKVTVLG | 0.0105 | 2.26 | – |
| mAb11002 (antibody, V domains shown) VH: EVQLVESGGGLVQPGGSLRLSCAASGFTVSSNYMSWVRQAPGKGLEWVSVIYSGGSTFYADSVKGRFTISRHNSKNTLYLQMNSLRAEDTAVYYCAREGYGMDVWGQGTTVTVSS VL: not shown | 4.46 | 0.0783 | – |
| mAb10913 (antibody, V domains shown) VH: EVQLVESGGGLVQPGGSLRLSCAASGFTFRNYEMNWVRQAPGKGLEWVSYITSSGSTMYYADSVKGRFTISRDNAKNSLYLQMNSLRAEDTAVYYCARDGFYYYYAMDVWGQGTTVTVSS VL: QSVLTQPPSVSAAPGQKVTISCSGSSSNIGNNYVSWYQQLPGTAPKLLIYDNNKRPSGIPDRFSGSKSGTSATLGITGLQTGDEADYYCGTWDSSLSVGRVFGTGTKVTVLG | – | – | Kd [2]: 0.274 nM; koff [2]: 0.00173 s⁻¹; kon [2]: 6.32e+06 M⁻¹ s⁻¹; t½ [2]: 0.112 h |
| mAb10920 (antibody, V domains shown) VH: QVQLVESGGGVVQPGRSLRLSCAASGFTFSYYGMHWVRQAPGKGLEWVAVIWYDGSNKFYADSVKGRFTISRDNSKNTLYLQMNSLRAEDTAVYYCAAARPGYYYGMDVWGQGTTVTVSS VL: DIQMTQSPSSLSASVGDRVTITCRASQGISNYLAWFQQKPGKAPNSLIYAASSLQRGVPSKFSGSGSGTDFTLTISSLQPEDFATYYCQQYNSYPRTFGQGTKVEIKR | – | – | Kd [2]: 0.119 nM; t½ [2]: 0.255 h |
| mAb11010 (antibody, V domains shown) VH: QVQLVESGGGVVQPGRSLRLSCAASGFTFSSYGMHWVRQAPGKGLEWVAVISYDGSYKYYADSVKGRFTISRDNSKNTLYLQMNSLRAEDTAVYYCAIDGGTVTTIFDYWGQGTLVTVSS VL: not shown | 0.0789 | 2.14 | – |
| mAb11006 (antibody, V domains shown) VH: EVQLVESGGGLVQPGGSLRLSCAASGFIVSRNYMSWVRQAPGKGLEWVSVIYSGGSTFYADSVKGRFTISRHNSKNTLYLQMNSLKAEDTAVYYCARELRGYFDYWGQGTLVTVSS VL: DIQLTQSPSFLSASVGDRVTITCWASQGISSYLAWYQQKPGKAPKLLIYAASTLQSGVPSRFSGSGSGTEFTLTISSLQPEDFATYYCQLLNSYPYTFGQGTKLEIKR | 0.158 | 3.69 | – |
| mAb10915 (antibody, V domains shown) VH: EVQLVESGGGLVQPGGSLRLSCAASGFTVSSNYMNWVRQAPGKGLEWVSVIYSGGSTFYADSVKGRFTISRHNSKNTLYLQMNSLRPEDTAVYYCARDLGGYFDYWGQGTLVTVSS VL: not shown | – | – | Kd [2]: 0.156 nM; t½ [2]: 2.79 h |
| mAb10914 (antibody, V domains shown) VH: EVQLVESGGGLVQPGGSLRLSCAASGLIVSRNYMIWVRQAPGKGLEWVSVIYSGGSTFYADSVKGRFTISRHNSKNTLYLQMNSLRAEDTAVYYCARDLGTGGMDVWGQGTTVTVSS VL: DIQLTQSPSFLSASVGDRVTITCWASQGISSYLAWYQQKPGKAPKLLIYAASTLQSGVPSRFSGSGSGTEFTLTISSLQPEDFATYYCQQLNSYPLTFGGGTKVEIKR | – | – | Kd [2]: 0.318 nM; t½ [2]: 0.875 h |
| mAb11008 (antibody, V domains shown) VH: EVQLVESGGGLVQPGGSLRLSCAASGFTVSSNYMTWVRQAPGKGLEWVSVIYSGGSTFYADSVKGRFTISRHNSENTLYLQMNSLRAEDTAVYYCARDLAAAGTDYWGQGALVTVSS VL: DIQLTQSPSFLSASVGDRVTITCWASQGISSYLAWYQQKPGKAPKLLIYAASTLQSGVPSRFSGSGSGTEFTLTISSLQPDDFATYYCQHLNSYLYTFGQGTKLEIKR | 0.492 | 1 | koff [1]: 0.000192 s⁻¹; kon [1]: 390000 M⁻¹ s⁻¹ |
| mAb10998 (antibody, V domains shown) VH: EVQLVESGGGLVHPGGSLRLSCAASGLTVSSNYMSWVRQAPGKGLEWVSVIYSGGSTYYADSVKGRFTISRHNSKNTLFLQMNSLRAEDTAVYYCARDRPITGTTLDVWGQGTTVTVSS VL: DIQMTQSPSSLFASVGDRVTITCRASQSISSYLNWYQQKPGKAPKLLIYAASSLQSGVPSRFSGSGSGTDFTLTISSLQPEDFAFYYCQQTYSTPPITFGQGTRLEIKR | 2.44 | 0.0533 | koff [1]: 0.00358 s⁻¹; kon [1]: 1.47e+06 M⁻¹ s⁻¹ |
